B1: YL-G1-19-01 (antibody, human IgG1, kappa, V domains shown)
VH: QVQLQQSGAELVRPGTSVKVSCKASGYAFTNYLIEWVKQRPGQGLEWIGVINPGSGGTNYNEKFKGKATLTADKSSNTAYMQLSSLTSEDSAVYFCARVYYGNSFGYWGQGTLVTVSA
VL: DIVMTQSPSSLTVTAGEKVTMSCKSSQSLLNSGNQKNYLTWYQQKPGQPPKLLIYWASTRESGVPDRFTGSGSGTDFTLTISSVQAEDLAVYYCQNEYFYPFTFGSGTKLEIKR
notes: also called 1st generation chimeric antibody
B2: YL-G1-19-02 (antibody, human IgG1, kappa)
heavy: not shown
light: DIVMTQSPSSLTVTAGEKVTMSCKSSQSLLNSGNQKNYLTWYQQRPGQPPKLLIYWASTRESGVPVRFTGSGSGTDFTLTISSVQAEDLAVYYCQNAYIYPLTFGTGTKLELKRTVAAPSVFIFPPSDEQLKSGTASVVCLLNNFYPREAKVQWKVDNALQSGNSQESVTEQDSKDSTYSLSSTLTLSKADYEKHKVYACEVTHQGLSSPVTKSFNRGEC
notes: also called YL-G1-02; YL-G-19-02

Target: T1, human CLDN18.2 expressed on cells (human)
T1 construct: Tight junction membrane protein; also called huCLDN18.2
Assay: flow cytometry (geometric mean) on CLDN18.2-expressing 293T cells, Alexa Fluor 647 anti-human IgG Fc secondary
Method: CLDN18.2-expressing 293T cells and CLDN18.1-expressing 293T cells at a density of 2×10⁶ cells/ml in FACS buffer ([…]) were mixed with a dilution series ([…] in FACS buffer) of the chimeric antibodies, the reference antibody, or a IgG negative control (50 μL) in a 96-well V-bottom plate and incubated for 30 min on ice. After a wash with 200 μL/well FACS buffer, cells were resuspended in 30 μL/well secondary antibody Alexa Fluor® 647 AffiniPure Goat Anti-Human IgG, […] specific (Jackson, Cat. #109-605-098) and incubated for 20 min on ice. After three washes with 200 μL/well FACS buffer, cells were resuspended with 150 μl/well FACS buffer and subjected to FACS using BD LSR II Flow Cytometer (HTS). Geometric mean was used for data analysis and plots were made using Prism GraphPad.

| Binder | EC50 (read off the curve) |
| --- | --- |
| B1 | ~0.8 µg/mL |
| B2 | ~0.6 µg/mL |
